Assay results as given in patent publication US8114641B2, “Methylbutanol as an advanced biofuel” (Synthetic Genomics, Inc., priority 2007, dated 2012).
Where two headings read alike, the source gives them in different places.

Experiments:
[1] = based on literature review; cited from earlier work
[2] = Physical properties of alcohol fuels and gasoline; format: physicochemical
[3] = Fuel properties of the neat fuel
[4] = 10% blend in gasoline; value based on literature review; cited from earlier work
[5] = 10% blend in gasoline
[6] = Reductase activity of yeast ADH1 on various aldehydes; format: biochemical
Procedure: The ideal ADH for 2-MBO production should be able to reduce branched aldehydes. Therefore, the enzymes ADH1, ADH6, and ADH7 were overexpressed in yeast and were tested for their reductase activity on various aldehydes.

[7] = Keto acid decarboxylase activity on 2-keto butyrate, NADH dependent coupled assay with yeast ADH1; format: biochemical; settings: for Vmax 2 keto butyrate / Km: crude extract; for Vmax 2 keto butyrate: S. cerevisiae PDC1 deletion host; for Km: enzyme expressed from p415 TEF in S. cerevisiae PDC1 deletion strain
Procedure: (§1) The Lactococcus lactis KdcA and S. cerevisiae and P. stipitis PDCs were cloned into yeast expression vector p415 under the control of TEF promoter. The host strain was a PDC1 deletion strain. Crude extracts were prepared for enzymatic assays by incubating cell pellet with CelLytic (Sigma), followed by bead beating. The decarboxylase reaction was performed in 100 mM Citrate Phosphate buffer with 1 mM Thiamine diphosphate, 1 mM MgCl2 and 50 μM to 20 mM aldehyde. The assay was coupled to an alcohol dehydrogenase which enabled continuous monitoring of NADH or NADPH oxidation at 340 nm.
NADH dependent coupled assays with yeast ADH1 were carried out to determine the decarboxylase activity of yeast and heterologous enzymes on the substrate 2 keto butyrate (2KB). 2KB is an intermediate in the production of 2-methylbutanol. A high decarboxylase activity on 2KB can lead to its conversion to propanal and reduce the yield of 2-MBO. […] (See FIG. 25 a-g.) The enzyme with the lowest Km for 2-ketobutyrate is yeast PDC1 and therefore the corresponding gene needs to be deleted in the 2-MBO production strain (data not shown).

[8] = Keto acid decarboxylase activity on pyruvate, crude extracts; format: biochemical; settings: crude extract, S. cerevisiae PDC1 deletion host; sigmoidal curves
Procedure: as §1
Pyruvate is the target for multiple enzymes and a decarboxylation of the compound can lead to the production of acetaldehyde and subsequently ethanol. To prevent decarboxylation of pyruvate and increase 2-MBO production, a keto acid decarboxylase with a very high Km for pyruvate is ideal. […] The kinetic curves obtained with pyruvate as substrate were sigmoidal. This could be due to the fact that there are multiple enzymes in the crude extract with different Km for pyruvate. The final curve is therefore the superposition of individual curves. Absolute Km values […]. (FIG. 26.)

[9] = Keto acid decarboxylase activity on 2-keto-3-methylvalerate, PDC/KDC-ADH6 coupled assay with crude extracts; format: biochemical; settings: for Vmax 2 keto 3 methyl valerate / Km: crude extract; for Vmax 2 keto 3 methyl valerate: S. cerevisiae PDC1 deletion host; for Km: enzyme expressed from p415 TEF in S. cerevisiae PDC1 deletion strain, read-out: Km 2 keto 3 methyl valerate
Procedure: as §1
The substrate specificity of the crude extract overexpressing different PDC/Kdcs was tested with a broad range of aldehydes. This included acetaldehyde, butyraldehyde and 2-methylbutyraldehyde. The concentration of the aldehydes was varied from 50 μM to 20 mM to determine the Km and Vmax values.
2-keto-3-methylvalerate (2K3MV) was tested for decarboxylation and subsequent reduction using PDC/KDC-ADH6 coupled assays.

For `CCO` [Ethanol, reference compound], the “Fuel Solubility in Water” value [1] is listed as 100 wt %, the “Water Solubility in Fuel” value [1] is listed as 100 wt % and the “Boiling Point, max” value [2] is listed as 79 °C. The “Flash Point, min” value [2] was 13 °C, the “Freezing Point, max” value [2] was −114 °C and the “Energy Content” value [3] was 84,519 BTU/gal. For the same molecule, the “Reid Vapor Pressure” value [3] was 2.3 psi, the “Pump Octane (R + M)/2” value ([3]; extrapolated from tests on blended fuels (blending octanes)) was 130.9 and the “Reid Vapor Pressure” value [4] was ~8.2^A psi. The “Energy Content” value [5] was 111,052 BTU/gal and the “Pump Octane (R + M)/2” value ([5]; RBOB with Pump Octane 80.85 and RVP 7.37) was 85.9.

B1: ADH1: Saccharomyces cerevisiae alcohol dehydrogenase ADH1, SEQ ID NO: 67 (protein, listed as Saccharomyces cerevisiae)
chain: MSIPETQKGVIFYESHGKLEYKDIPVPKPKANELLINVKYSGVCHTDLHAWHGDWPLPVKLPLVGGHEGAGVVVGMGENVKGWKIGDYAGIKWLNGSCMACEYCELGNESNCPHADLSGYTHDGSFQQYATADAVQAAHIPQGTDLAQVAPILCAGITVYKALKSANLMAGHWVAISGAAGGLGSLAVQYAKAMGYRVLGIDGGEGKEELFRSIGGEVFIDFTKEKDIVGAVLKATDGGAHGVINVSVSEAAIEASTRYVRANGTTVLVGMPAGAKCCSDVFNQVVKSISIVGSYVGNRADTREALDFFARGLVKSPIKVVGLSTLPEIYEKMEKGQIVGRYVVDTSK
For B1, the “fold less active on 2-methyl butaraldehyde than acetaldehyde” value [6] was about 5000 fold.

B2: L. lactis KDCA: Branched-chain alpha-ketoacid decarboxylase [Lactococcus lactis], SEQ ID NO: 61 (protein, listed as Lactococcus lactis)
chain: MYTVGDYLLDRLHELGIEEIFGVPGDYNLQFLDQIISREDMKWIGNANELNASYMADGYARTKKAAAFLTTFGVGELSAINGLAGSYAENLPVVEIVGSPTSKVQNDGKFVHHTLADGDFKHFMKMHEPVTAARTLLTAENATYEIDRVLSQLLKERKPVYINLPVDVAAAKAEKPALSLEKESSTTNTTEQVILSKIEESLKNAQKPVVIAGHEVISFGLEKTVTQFVSETKLPITTLNFGKSAVDESLPSFLGIYNGKLSEISLKNFVESADFILMLGVKLTDSSTGAFTHHLDENKMISLNIDEGIIFNKVVEDFDFRAVVSSLSELKGIEYEGQYIDKQYEEFIPSSAPLSQDRLWQAVESLTQSNETIVAEQGTSFFGASTIFLKSNSRFIGQPLWGSIGYTFPAALGSQIADKESRHLLFIGDGSLQLTVQELGLSIREKLNPICFIINNDGYTVEREIHGPTQSYNDIPMWNYSKLPETFGATEDRVVSKIVRTENEFVSVMKEAQADVNRMYWIELVLEKEDAPKLLKKMGKLFAEQNK
For B2, the “Vmax 2 keto butyrate” value [7] was 2053.0 µM/min/mg, the Km [7] was 6.05 mM and the “Vmax Pyruvate” value [8] was 10069 µM/min/mg. For the same molecule, the “Vmax 2 keto 3 methyl valerate” value [9] was 987.3 µM/min/mg, the Km ([9]; listed as KDCA) was 3.7 mM and the Km [9] was 3.75 mM.

B3: P. stipitis PDC 3/6: Pyruvate decarboxylase (PDC6) (PDC3) [Pichia stipitis], SEQ ID NO: 53 (protein, listed as Pichia stipitis)
chain: MTPVQETIRLPGTSSPTVPENVTLGEYLFLRISQANPKLRSIFGIPGDFNVDLLEHLYSPVVAGRDIKFIGLCNELNGAYTADGYSRAIGGLSTFISTFGVGELSAINGIAGSFAEFSPVLHIVGTTSLPQRDHAINGSDVRNHHHLIQNKNPLCQPNHDVYKKMIEPISVIQESLDSDLQRNMEKIDRVLVKILQESRPGYLFIPCDITNLIVPSYRLYETPLPLEIQLTTSGVEVLEDVVDAILFRLYKSKNPSLLSDCLTTRFNLQDKLNTLVAKLPSNFVKLFSTNMARNIDESLSNFVGLYFGIGSSSKEVSRQLERNTDFLINLGYFNAETTTAGYSNDFSNIEEYIEINPDYIKVNEHIINIKNPESGKRLFSMGQLLDALLFKLDLNKIENINNNNISYKFFPPTLYEQDNNTDYIPQTKLVDYLNENLQPGDLLVMDTMSFCFALPDIMLPQGVQLLTQNYYGSIGYALPSTFGATMAVNDLGSDRRIILIEGDGAAQMTIQELSSFLKYKEFLPNMPKIFLINNDGYTVERMIKGPTRSYNDINGEWSWTQLLGVFGDKEQKYHSTALLRNVNEFNKYFEFQRQTDNSKLEFIELIAGKYDCPLRFSEMFCKK
For B3, the “Vmax 2 keto butyrate” value [7] was 5389 µM/min/mg, the Km [7] was 6.51 mM and the “Vmax on 2 keto butyrate, fold higher than KDCA” value ([7]; relative to L. lactis KdcA) was “about 3.4 fold”. The “Vmax Pyruvate” value [8] was 12624 µM/min/mg, the “Vmax 2 keto 3 methyl valerate” value [9] was 3359. uM/min/mg and the Km ([9]; listed as P. stipitis PDC3/6) was 0.84 mM. For the same molecule, the Km [9] was 0.84 mM and the “Vmax on 2-keto-3-methylvalerate, fold higher than KdcA” value ([9]; relative to L. lactis KdcA) was 3.4 fold.
